# Test results from PMC5769749.
# Target: NC-RLuc (HIV-1 nucleocapsid fused to Renilla luciferase), expressed in HeLa cells (HIV-1)
# Experiment: proximity ligation
substance,measurement,value
Staufen1-YFP (from UniProt O95793-2 1-496) (natural protein),PLA spots per cell (spots per cell),103
